In patent US20230250157A1:

What was measured:
Assay in all cases: ELISA
Pang17 RBD = target: Pang17 RBD
Yun11 RBD = target: Yun11 RBD
BtKY72 RBD = target: BtKY72 RBD
RmYN02 RBD = target: RmYN02 RBD
Rf1 RBD = target: Rf1 RBD
SHC014 RBD = target: SHC014 RBD
RsSTT200 RBD = target: RsSTT200 RBD
Rs4081 RBD = target: Rs4081 RBD
BM4831 RBD = target: BM4831 RBD
Khosta2 RBD = target: Khosta2 RBD
LyRa3 RBD = target: LyRa3 RBD
RaTG13 RBD = target: RaTG13 RBD

Measured: EC50

C102 IgG
> 10 µg/mL: Pang17 RBD | Yun11 RBD | BtKY72 RBD | RmYN02 RBD | Rf1 RBD | SHC014 RBD | RsSTT200 RBD | Rs4081 RBD | BM4831 RBD | Khosta2 RBD | LyRa3 RBD

C144 IgG
> 10 µg/mL: Pang17 RBD | Yun11 RBD | BtKY72 RBD | RmYN02 RBD | Rf1 RBD | SHC014 RBD | Rs4081 RBD | RaTG13 RBD | BM4831 RBD | Khosta2 RBD | LyRa3 RBD

S309 IgG
> 10 µg/mL: Yun11 RBD | BtKY72 RBD | RmYN02 RBD | Rf1 RBD | Rs4081 RBD
